{
  "source": "paper PMC3737555",
  "about": "“Structural insights into the targeting of mRNA GU-rich elements by the three RRMs of CELF1”",
  "key": {"CELF1 RRM23 (Xenopus)": {"system": "CELF1 RRM23 (Xenopus)", "assay": "ITC", "conditions": "ITC: 25 mM potassium phosphate, 100 mM NaCl, pH 7.0, 25 C, 12.5 uM protein, 125 uM RNA in syringe; NMR: same buffer, 298 K, ~200-250 uM protein"}, "CELF1 RRM123 [1]": {"target": "T1, CELF1 RRM123 (Xenopus, UniProt O57406 1-214+385-489, internal_change)", "T1 sequence (O57406 other isoform, or with tags, fused parts or gaps)": "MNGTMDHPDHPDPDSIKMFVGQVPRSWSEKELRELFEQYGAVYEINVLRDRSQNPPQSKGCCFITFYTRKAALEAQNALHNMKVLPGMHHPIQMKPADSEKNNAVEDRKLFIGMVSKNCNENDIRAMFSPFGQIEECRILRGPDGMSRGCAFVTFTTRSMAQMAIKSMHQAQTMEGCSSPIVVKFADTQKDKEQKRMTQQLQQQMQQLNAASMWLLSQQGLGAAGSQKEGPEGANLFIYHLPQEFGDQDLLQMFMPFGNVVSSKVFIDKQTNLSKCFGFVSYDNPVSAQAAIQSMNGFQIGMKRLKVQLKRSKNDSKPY", "assay": "NMR PRE; strongest PRE in RRM2; ITC: 25 mM potassium phosphate, 100 mM NaCl, pH 7.0, 25 C, 12.5 uM protein, 125 uM RNA in syringe; NMR: same buffer, 298 K, ~200-250 uM protein", "conditions": "protein: recombinant; tags: N-terminal His; label: MTSL on 5' 4-thiouridine; single strand"}, "CELF1 RRM1": {"target": "CELF1 RRM1 (Xenopus, UniProt O57406 16-99)", "sequence (O57406 16-99)": "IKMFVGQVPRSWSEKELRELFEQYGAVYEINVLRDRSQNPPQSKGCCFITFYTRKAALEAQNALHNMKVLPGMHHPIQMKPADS", "assay": "NMR PRE; ITC: 25 mM potassium phosphate, 100 mM NaCl, pH 7.0, 25 C, 12.5 uM protein, 125 uM RNA in syringe; NMR: same buffer, 298 K, ~200-250 uM protein", "conditions": "protein: recombinant; tags: His; label: MTSL on 5' 4-thiouridine; single strand"}, "CELF1 RRM123 [2]": {"target": "T1, CELF1 RRM123", "assay": "ITC; n=0.79; ITC: 25 mM potassium phosphate, 100 mM NaCl, pH 7.0, 25 C, 12.5 uM protein, 125 uM RNA in syringe; NMR: same buffer, 298 K, ~200-250 uM protein", "conditions": "protein: recombinant; tags: N-terminal His; single strand"}, "CELF1 RRM123 [3]": {"target": "T1, CELF1 RRM123", "assay": "ITC; n=1.45; ITC: 25 mM potassium phosphate, 100 mM NaCl, pH 7.0, 25 C, 12.5 uM protein, 125 uM RNA in syringe; NMR: same buffer, 298 K, ~200-250 uM protein", "conditions": "protein: recombinant; tags: N-terminal His; single strand"}, "CELF1 RRM123 [4]": {"target": "T1, CELF1 RRM123", "assay": "NMR PRE; strongest PRE in RRM3; ITC: 25 mM potassium phosphate, 100 mM NaCl, pH 7.0, 25 C, 12.5 uM protein, 125 uM RNA in syringe; NMR: same buffer, 298 K, ~200-250 uM protein", "conditions": "protein: recombinant; tags: N-terminal His; label: MTSL on 3' 4-thiouridine; single strand"}, "CELF1 RRM123 [5]": {"target": "T1, CELF1 RRM123", "assay": "ITC; n=0.85; ITC: 25 mM potassium phosphate, 100 mM NaCl, pH 7.0, 25 C, 12.5 uM protein, 125 uM RNA in syringe; NMR: same buffer, 298 K, ~200-250 uM protein", "conditions": "protein: recombinant; tags: N-terminal His; single strand"}, "[6]": {"target": "CELF1 full-length wild type (Xenopus, UniProt O57406 1-489)", "sequence (O57406 whole entry)": "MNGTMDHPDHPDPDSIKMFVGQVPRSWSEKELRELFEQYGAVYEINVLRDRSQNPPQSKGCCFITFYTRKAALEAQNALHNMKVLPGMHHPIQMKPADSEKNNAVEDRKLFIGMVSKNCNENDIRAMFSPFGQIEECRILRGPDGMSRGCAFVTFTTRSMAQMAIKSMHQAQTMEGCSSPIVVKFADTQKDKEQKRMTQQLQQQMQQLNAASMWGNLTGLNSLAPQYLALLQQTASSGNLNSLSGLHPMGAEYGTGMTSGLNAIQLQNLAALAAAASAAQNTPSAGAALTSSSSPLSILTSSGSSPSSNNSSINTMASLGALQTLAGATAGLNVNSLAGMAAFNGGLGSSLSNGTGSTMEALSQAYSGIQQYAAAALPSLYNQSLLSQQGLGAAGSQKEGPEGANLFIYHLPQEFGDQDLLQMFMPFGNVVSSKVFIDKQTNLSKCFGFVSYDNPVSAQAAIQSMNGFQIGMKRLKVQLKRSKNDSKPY", "assay": "NMR; extensive line broadening; ITC: 25 mM potassium phosphate, 100 mM NaCl, pH 7.0, 25 C, 12.5 uM protein, 125 uM RNA in syringe; NMR: same buffer, 298 K, ~200-250 uM protein", "conditions": "protein: recombinant, tags: N-terminal His"}, "CELF1 RRM123 [7]": {"target": "T1, CELF1 RRM123", "assay": "ITC; n=0.67; ITC: 25 mM potassium phosphate, 100 mM NaCl, pH 7.0, 25 C, 12.5 uM protein, 125 uM RNA in syringe; NMR: same buffer, 298 K, ~200-250 uM protein", "conditions": "protein: recombinant; tags: N-terminal His; single strand"}, "CELF1 RRM123 [8]": {"target": "T1, CELF1 RRM123", "assay": "ITC; n=1.64; ITC: 25 mM potassium phosphate, 100 mM NaCl, pH 7.0, 25 C, 12.5 uM protein, 125 uM RNA in syringe; NMR: same buffer, 298 K, ~200-250 uM protein", "conditions": "protein: recombinant; tags: N-terminal His; single strand"}, "CELF1 RRM123 [9]": {"target": "T1, CELF1 RRM123", "assay": "ITC; n=1.19; text gives 1.50 +/- 0.28; ITC: 25 mM potassium phosphate, 100 mM NaCl, pH 7.0, 25 C, 12.5 uM protein, 125 uM RNA in syringe; NMR: same buffer, 298 K, ~200-250 uM protein", "conditions": "protein: recombinant; tags: N-terminal His; single strand"}, "CELF1 RRM123 [10]": {"target": "T1, CELF1 RRM123", "assay": "ITC; n=0.83; ITC: 25 mM potassium phosphate, 100 mM NaCl, pH 7.0, 25 C, 12.5 uM protein, 125 uM RNA in syringe; NMR: same buffer, 298 K, ~200-250 uM protein", "conditions": "protein: recombinant; tags: N-terminal His; hairpin, 4 bp stem, single-stranded 5' and 3' tails"}},
  "data": [
    {"molecule": "RNA with UGU(U) site used with RRM23", "values": [
      {"measurement": "Kd", "setting": "CELF1 RRM23 (Xenopus)", "value": 520, "unit": "nM"}
    ]},
    {"molecule": "UUGUUUUGUUUUUUGU (ssRNA, additional 5'-terminal 4-thiouridine)", "note": "[5'-U* EDEN-2U/4U]", "values": [
      {"measurement": "binding result", "setting": "CELF1 RRM123 [1]", "value": "binds"}
    ]},
    {"molecule": "UUGU (ssRNA, 5'-terminal 4-thiouridine)", "note": "[5'-U*UGU]", "values": [
      {"measurement": "binding result", "setting": "CELF1 RRM1", "value": "binds"}
    ]},
    {"molecule": "UGUAUGUGUUGUUUUAUGU (ssRNA)", "note": "[EDEN19]", "values": [
      {"measurement": "Kd", "setting": "CELF1 RRM123 [2]", "value": "330 ± 70", "unit": "nM"}
    ]},
    {"molecule": "UGUUUGUUUGU (ssRNA)", "note": "[EDEN11 (GRE)]", "values": [
      {"measurement": "Kd", "setting": "CELF1 RRM123 [3]", "value": "2200 ± 300", "unit": "nM"}
    ]},
    {"molecule": "UGUUUUGUUUUUUGUU (ssRNA, 3'-terminal 4-thiouridine (taken as an additional nucleotide; not explicit))", "note": "[3'-U* EDEN-2U/4U]", "values": [
      {"measurement": "binding result", "setting": "CELF1 RRM123 [4]", "value": "binds"}
    ]},
    {"molecule": "UGUUUUGUUUUUUGU (ssRNA)", "note": "[EDEN-2U/4U]", "values": [
      {"measurement": "Kd", "setting": "CELF1 RRM123 [5]", "value": "110 ± 20", "unit": "nM"},
      {"measurement": "binding result", "setting": "[6]; single strand", "value": "binds"}
    ]},
    {"molecule": "UGUUUUUUGUUUUGU (ssRNA)", "note": "[EDEN-4U/2U]", "values": [
      {"measurement": "Kd", "setting": "CELF1 RRM123 [7]", "value": "980 ± 120", "unit": "nM"}
    ]},
    {"molecule": "UGUUUUUUGU (ssRNA)", "note": "[EDEN-4U]", "values": [
      {"measurement": "Kd", "setting": "CELF1 RRM123 [8]", "value": "2080 ± 400", "unit": "nM"}
    ]},
    {"molecule": "UGUUUUGUUUGU (ssRNA)", "note": "[EDEN-2U/1U]", "values": [
      {"measurement": "Kd", "setting": "CELF1 RRM123 [9]", "value": "1490 ± 230", "unit": "nM"}
    ]},
    {"molecule": "UGUUUUGUUCCCGAGGACGGGUUGU (structured_RNA)", "note": "[EDEN-2U/HL]", "values": [
      {"measurement": "binding result", "setting": "[6]; hairpin, 4 bp stem, single-stranded 5' and 3' tails", "value": "binds"},
      {"measurement": "Kd", "setting": "CELF1 RRM123 [10]", "value": "550 ± 80", "unit": "nM"}
    ]}
  ]
}
